Results as given in the nanobody polyreactivity screen of Harvey et al. (2022).

Test: yeast display, Sf9 membrane polyspecificity reagent, FACS + sequencing; frameworks hold sequencing errors
Procedure, shortened: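 Nanobodies came from a synthetic yeast display library in Saccharomyces cerevisiae BJ5465, induced with galactose for 36–48 hours and stained for 1 hour at 4 °C with 10% biotinylated, detergent-solubilized Sf9 membrane reagent. Cells were enriched on streptavidin microbeads and then FACS-sorted, with low and high (top ~1%) gates set on anti-HA fluorescence for expression and streptavidin fluorescence for reagent binding. Each polyreactivity label reflects the gate a clone came from. Genes were amplified by colony PCR, sequenced by MiSeq 2 × 250 and filtered by CDR length.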
With “QVQLVESGGGLVQAGGSLRSSCAASGSLFTSNTMGWHRQAPGKERELVAAITSSGGSMFYADSVKGRFTISRDNAKNTVYLQMNSLKPEDNAVYYCAADTIGYHDWYDYWGQGTQVTVSS” the “polyreactivity (PSR sort gate)” value was “low polyreactivity”. With “QVQLVESGGGLVQAGGSLRVSCAASGFIFGDYAMGWYRQAPGKERELVAAINRGASTYYADSVKGRFTISRDNAKNTVYLQMNSLKPEDTAVYYCAAAGYSRGGRGGYWGQGTHVTVSS” the “polyreactivity (PSR sort gate)” value was “high polyreactivity”. In the case of “QVQLVESGGGLVQAGGSLRVSCAASGFIFPGNAMGWYRQAPGKERELVAAISNSGSRTYYADSVKGRFTISRDNAKNTVYLQMNSLKPEDTAVYYCNADVHNRGWPYDYWGQGTQVTVSS”, the “polyreactivity (PSR sort gate)” value is reported as “low polyreactivity”. In the case of “QVQLVESGGGLVQAGGSLRVSCAASGFIFYGYTMGWYREAPGKERELVARISRRGGSTYYADSVKGRFTISRDNAKNTVYLQMNSLKPEDTAVYYCATRALGHFDWGQGTQVTVSS”, the “polyreactivity (PSR sort gate)” value is reported as “low polyreactivity”. In the case of “QVQLVESGGGLVQAGGSLRVSCAASGFTFSDYAMGWYRQAPGKESELVAGISSGGSTNYADSVKGLFTISRDNAKNTVYLQMNSLKPDDTAVYYCAADLYATWSYFFTWLDYWGQGTQVTVSS”, the “polyreactivity (PSR sort gate)” value is reported as “high polyreactivity”. With “QVQLVESGGGLVQAGGSLRVSCAASGGIFGLYTMGWYRQAPGTERELVAGISKRGTRTRYADSVKGRFTISRDNAKNTVYLQMNSLKPDDTAVYYCNADYYVSKLDDWGQGTQVTVSS” the “polyreactivity (PSR sort gate)” value was “high polyreactivity”. With “QVQLVESGGGLVQAGGSLRVSCAASGGILRGYAMGWYRQARGKEWELVAAISRGGRTNYADSVKGRFTISRDNAKNTVYLQMNSLKPEDTAVYYCAKRYARGENDYWGQGTQVTVSS” the “polyreactivity (PSR sort gate)” value was “high polyreactivity”. In the case of “QVQLVESGGGLVQAGGSLRVSCAASGIIFDGNAMGWYRQAPGKERELVAAITASGGSTHYADSVKGRFTISRDNAKNTVYLQMNSLKPEDTAVYYCNKRSRTTGDYDYWGQGTHVTVSS”, the “polyreactivity (PSR sort gate)” value is reported as “low polyreactivity”. For “QVQLVESGGGLVQAGGSLRVSCAASGIIFGSYPMGWYRQAPGTERELVATISFSGGTTNYADSVKGRFPISRDNATTPVYLQMNSLTPEDTAVYYCAARPAPATGKLDYWGQGTQETVSS”, the “polyreactivity (PSR sort gate)” value was “low polyreactivity”. For “QVQLVESGGGLVQAGGSLRVSCAASGITFAYYAMGWYRHAPGKDRELVAAITRRGSSTYYADSVKGRFTISRDNAKNTVYLQMNSLKPEATAVYYCAAVAYGRERYDYWGPGTQVTVSS”, the “polyreactivity (PSR sort gate)” value was “high polyreactivity”. In the case of “QVQLVESGGGLVQAGGSLRVSCAASGLILAYYDMGWYRQAPGKERELVASITGSGGDTYYADSVKGRFTISRDNAKNTVYLQMNSLKPEDTAVYYCAAEYRNVYWIFGVDYWGQGTQVTVSS”, the “polyreactivity (PSR sort gate)” value is reported as “low polyreactivity”. With “QVQLVESGGGLVQAGGSLRVSCAASGNTFYYTMGWYLQAPGKERELVATISYDGTSTYYADSVKGRFTISRDNAKNTVYLQKNSLKPEDTAVYYSSAYGTVVTLNDYWGQGTQVTVSS” the “polyreactivity (PSR sort gate)” value was “low polyreactivity”. With “QVQLVESGGGLVQAGGSLRVSCAASGRIFPFYAMGWYRQAAGKERELVAAISWNGGSTFYADSVKGRFTSSRDNANNTVYLQMHRLKPEDNAVYYCNADFRPAYTYDYWGQGTQVTVSS” the “polyreactivity (PSR sort gate)” value was “low polyreactivity”. In the case of “QVQLVESGGGLVQAGGSLRVSCAASGRIFYPYAMGWYRQAPGKERELVAAIRRSGVDTYYADSVKGRFTISRDNAKNTVYLQMNSLKPEDTAVYYCDADPYWFFPHYDSWGQGTQVTVSS”, the “polyreactivity (PSR sort gate)” value is reported as “low polyreactivity”. For “QVQLVESGGGLVQAGGSLRVSCAASGRIVWPNTMGWSRQAPGKERELVAAISWSGGSTYYADSVKGRFTISRDNAKNTVYLHRNSLKPEHTAVYSCAKRPPHYSWPKIIDFGSWGQGTQVTVSS”, the “polyreactivity (PSR sort gate)” value was “high polyreactivity”. With “QVQLVESGGGLVQAGGSLRVSCAASGSIFDSNAMGWYRQAPGKERELVASITSSGGSTYYADSVKGRFTISRDNAKNTVYLQMNSLKPEDTAVYYCAKRAWTGYGYYYWGQGTQVTVSS” the “polyreactivity (PSR sort gate)” value was “high polyreactivity”.
